Test results from patent US20220135640A1, “CORTISTATIN OR AN ANALOGUE THEREOF AS A PHARMACEUTICALLY ACTIVE AGENT IN LATENT FORM” (CONSEJO SUPERIOR DE INVESTIGACIONES CIENTIFICAS (CSIC), priority 2019, published 2022).
Bridge positions count the residues as written; N and C are the ends. Ends that are not written are not given here.

Experiments:
sstr1 = sstr1 (Homo sapiens, UniProt P30872); conditions: cited from earlier work
sstr4 = sstr4 (Homo sapiens, UniProt P31391); conditions: cited from earlier work
sstrt2 receptor = sstrt2 receptor (Homo sapiens, UniProt P30874); conditions: cited from earlier work
[1] = Stability of cortistatin-29, free versus in LAP-CST, at room temperature; assay type: physicochemical
Description: On the other hand, whereas the amount of recombinant cortistatin-29 decreased in a 82% after 15 minutes at room temperature, the amount of cortistatin-29 in LAP-CST remains stable for at least 7 days.

[2] = test system: somatostatin receptors, sstr1-sstr5; conditions: cited from earlier work
[3] = cited from earlier work
[4] = test system: LAP-GS-MMP-GS-CST-29r fusion protein (SP-LAP-L1-MMP-L2-CST29r)
[5] = test system: bleomycin-induced lung fibrosis; test: Bleomycin-induced lung fibrosis, comparison of LAP constructs (Example 5); assay type: in vivo, C57Bl/6 mice; conditions: nasal inhalation, once a week, 20 pg, 18 days
Description: FIG. 5. Lung fibrosis and tissue damage were quantified using Image J program and scored using an established clinical index from 0 to 4 in a blinded fashion. Mortality caused by fibrosis is shown in this figure.
Lung fibrosis was induced by intratracheal injection of bleomycin (50 μg/kg body weight, dissolved in 50 μl of saline) in C57Bl/6 mice. Mice were treated once a week by nasal inhalation of 20 pg of empty LAP (A), LAP containing only cortistatin (B), LAP containing cortistatin and linkers LAP-L1L2-CST but not MMP site (C), or LAP containing cortistatin, linkers and MMP site (D). After 18 days, lungs were dissected and processed for histological analysis using Mason Trichromic staining and Sirius Red staining. Lung fibrosis and tissue damage were quantified using Image J program and scored using an established clinical index from 0 to 4 in a blinded fashion.

recombinant MMP1 = target: T1, recombinant MMP1 (Homo sapiens, UniProt P03956); test: Treatment of LAP-CST supernatants with recombinant MMP1, Cortistatin-29 recovered; assay type: biochemical; conditions: 48 h supernatants treated with recombinant MMP1; diminished from 80 ng; 12 hours later
T1 sequence (P03956 100-469): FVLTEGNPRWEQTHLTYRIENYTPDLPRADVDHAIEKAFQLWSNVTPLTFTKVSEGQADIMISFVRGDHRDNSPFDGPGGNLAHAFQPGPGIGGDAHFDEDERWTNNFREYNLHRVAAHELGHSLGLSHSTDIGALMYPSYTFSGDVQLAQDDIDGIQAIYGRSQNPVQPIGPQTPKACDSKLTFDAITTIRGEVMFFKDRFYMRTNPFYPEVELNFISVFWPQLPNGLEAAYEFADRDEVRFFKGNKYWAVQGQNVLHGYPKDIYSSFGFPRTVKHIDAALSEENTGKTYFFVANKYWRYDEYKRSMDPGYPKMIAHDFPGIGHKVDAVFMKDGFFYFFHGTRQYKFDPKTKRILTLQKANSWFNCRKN
Source text: The amount of LAP-MMP-CST-29r peptide in culture supernatants was indirectly determined by measuring the concentration of rat Cortistatin-29 by using a specific ELISA (Phoenix Pharmaceuticals).

[6] = test system: liver fibrosis induced by CCl4; test: CCl4-induced liver fibrosis; assay type: in vivo, C57Bl/6 mice; conditions: systemic, once a week, 100 pg/mouse, 6 weeks
Description: FIG. 4 is a quantification of liver fibrosis and tissue damage using Image J program and scored using an established clinical ISHAK index from 0 to 4 in a blinded fashion.
Liver fibrosis was induced by intraperitoneal injection of CCl4 (3:9 in olive oil, 40 μl/mouse, every three days) in C57Bl/6 mice. Mice were treated three times a week with cortistatin (500 ng/mouse) or once a week with LAP-CST (100 pg/mouse). After 6 weeks, liver was dissected and processed for histological analysis using Mason Trichromic staining and Sirius Red staining. Liver fibrosis and tissue damage were quantified using Image J program and scored using an established clinical ISHAK index from 0 to 4 in a blinded fashion (FIG. 4).

[7] = test system: dermal fibrosis induced by bleomycin; test: Bleomycin-induced dermal sclerodermia, local treatment; assay type: in vivo, C57Bl/6 mice
Description: FIG. 2 illustrates the experiments performed wherein sclerodermia was induced by intradermal injection of bleomycin (3 times per week, during four weeks) in an area of […] in the dorsal skin of C57Bl/6 mice. Mice were locally treated around the lesion area with saline (group bleomycin), with cortistatin (group belomycin+CST, 3 time per week, 10 ng each time), with empty LAP vector (Bleomycin+LAP, once a week, 20 pg) or with LAP-CST (Bleomycin+LAP-CST, once a week, 20 pg). Naïve animals without bleomycin were used as basal control reference. After four weeks, lesioned skin area was dissected and processed for histological analysis using Mason Trichromic staining. Skin thickness (from epidermis to hypodermis) was quantified using Image J program. Fibrotic deposits in skin are stained in blue in sections. […] Skin thickness (from epidermis to hypodermis) was quantified using Image J program. […]

[8] = test system: bleomycin-induced lung fibrosis; test: Bleomycin-induced lung fibrosis, nasal inhalation (Example 3); assay type: in vivo, C57Bl/6 mice; conditions: once a week, 20 pg
Description: (§1) FIG. 3 illustrates the experiments performed wherein lung fibrosis was induced by intratracheal injection of bleomycin (50 μg/kg body weight, dissolved in 50 μl of saline) in C57Bl/6 mice. Mice were treated by nasal inhalation of saline (group bleomycin+saline), cortistatin (group belomycin+CST, 3 times per week, 10 ng each time), or LAP-CST (Bleomycin+LAP-CST, once a week, 20 pg). After 18 days, lungs were dissected and processed for histological analysis using Mason Trichromic staining and Sirius Red staining. Lung fibrosis and tissue damage were quantified using Image J program and scored using an established clinical index from 0 to 4 in a blinded fashion. Mortality caused by fibrosis is shown in this figure.
as §1, with “Lung” for “FIG. 3 illustrates the experiments performed wherein lung”, “fashion.” for “fashion. Mortality caused by fibrosis is shown in this figure.”

Chain of sstr4 (P31391 whole entry): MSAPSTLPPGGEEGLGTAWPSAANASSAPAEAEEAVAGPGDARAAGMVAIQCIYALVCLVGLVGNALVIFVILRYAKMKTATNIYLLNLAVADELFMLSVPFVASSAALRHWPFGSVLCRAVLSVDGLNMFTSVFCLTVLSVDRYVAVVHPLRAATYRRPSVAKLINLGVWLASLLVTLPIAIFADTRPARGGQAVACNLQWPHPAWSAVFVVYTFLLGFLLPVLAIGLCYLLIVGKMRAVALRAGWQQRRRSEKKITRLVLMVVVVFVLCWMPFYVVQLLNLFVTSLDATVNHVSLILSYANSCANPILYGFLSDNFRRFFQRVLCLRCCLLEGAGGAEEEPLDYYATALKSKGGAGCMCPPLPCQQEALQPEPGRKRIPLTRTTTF
Chain of sstr1 (P30872 whole entry): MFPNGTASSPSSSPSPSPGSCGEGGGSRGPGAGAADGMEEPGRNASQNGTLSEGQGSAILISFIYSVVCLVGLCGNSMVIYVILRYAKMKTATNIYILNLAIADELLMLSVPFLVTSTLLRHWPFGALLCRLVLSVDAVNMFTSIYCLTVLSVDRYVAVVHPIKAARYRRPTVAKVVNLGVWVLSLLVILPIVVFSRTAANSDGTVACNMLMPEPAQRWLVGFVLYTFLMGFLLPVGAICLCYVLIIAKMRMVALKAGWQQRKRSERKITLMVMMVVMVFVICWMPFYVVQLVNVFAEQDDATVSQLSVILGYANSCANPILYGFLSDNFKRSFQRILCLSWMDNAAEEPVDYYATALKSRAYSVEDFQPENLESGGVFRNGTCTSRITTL
Chain of sstrt2 receptor (P30874 whole entry): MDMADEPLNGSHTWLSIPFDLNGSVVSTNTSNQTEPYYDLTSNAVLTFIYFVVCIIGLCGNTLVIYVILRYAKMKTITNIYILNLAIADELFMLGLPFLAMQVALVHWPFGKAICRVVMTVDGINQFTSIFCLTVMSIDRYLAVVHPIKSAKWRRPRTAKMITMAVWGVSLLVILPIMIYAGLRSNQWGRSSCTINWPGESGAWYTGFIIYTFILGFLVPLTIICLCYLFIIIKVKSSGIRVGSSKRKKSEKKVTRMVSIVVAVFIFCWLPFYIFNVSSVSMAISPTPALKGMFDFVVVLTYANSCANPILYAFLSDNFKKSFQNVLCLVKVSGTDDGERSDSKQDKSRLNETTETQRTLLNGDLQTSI

C[C@@H](O)[C@@H]1NC(=O)[C@H](CCCCN)NC(=O)[C@@H](Cc2c[nH]c3ccccc23)NC(=O)[C@H](Cc2ccccc2)NC(=O)[C@@H](NC(=O)[C@H](N)Cc2ccccc2)CSSC[C@@H](C(=O)N[C@H](CO)[C@@H](C)O)NC1=O [octreotide]
affinity to the sstr1 receptor (sstr1): completely loses its affinity | affinity to the sstr4 receptor (sstr4): completely loses its affinity | binding to the sstrt2 receptor (sstrt2 receptor): keeps binding

cortistatin-29: rat sequence of cortistatin, 29 amino acids (GenBank: EDL81150.1) (QERPPLQQPPHRDKKPCKNFFWKTFSSCK-OH; disulfide 17-28 (inferred); ends not checked; UniProt Q62949 84-112, looked up) [reference compound]
decrease of the amount of cortistatin-29 ([1]; after 15 minutes at room temperature): 82%

cortistatin
affinity to somatostatin receptors [2]: nanomolar affinity | blood half-life [3]: a few minutes

recombinant MMP1
amount of Cortistatin-29 (indirectly measuring LAP-CST) recovered from the culture, 12 hours after MMP1 treatment [4]: diminished from 80 ng to 20 ng, 12 hours later | amount of Cortistatin-29 (indirectly measuring LAP-CST) recovered from the culture, before MMP1 treatment [4]: diminished from 80 ng to 20 ng, 12 hours later

B1: LAP-CST: fusion protein of LAP of TGFβ-1 (Met1-Ser273), MMP cleavage site PLGLWA flanked by GGGGS linkers, and rat cortistatin-29 (protein)
chain: MPPSGLRLLPLLLPLLWLLVLTPGRPAAGLSTCKTIDMELVKRKRIEAIRGQILSKLRLASPPSQGEVPPGPLPEAVLALYNSTRDRVAGESAEPEPEPEADYYAKEVTRVLMVETHNEIYDKFKQSTHSIYMFFNTSELREAVPEPVLLSRAELRLLRLKLKVEQHVELYQKYSNNSWRYLSNRLLAPSDSPEWLSFDVTGVVRQWLSRGGEIEGFRLSAHCSCDSRDNTLQVDINGFTTGRRGDLATIHGMNRPFLLLMATPLERAQHLQSEFGGGGSPLGLWAGGGGSAAAQERPPLQQPPHRDKKPCKNFFWKTFSSCK
modifications: Fusion peptide
protection versus bleomycin-induced lung fibrosis and mortality [5]: protected | time the amount of cortistatin-29 remains stable ([1]; cortistatin-29 in LAP-CST): at least 7 days | amount of Cortistatin-29 (indirectly measuring LAP-CST) recovered from the culture (recombinant MMP1): 20 ng | survival ([6]; mortality of 50% in untreated mice): 100% | liver fibrotic area ([6]; similar to cortistatin 500 ng/mouse three times a week): significantly reduced liver fibrotic area | dermal fibrosis (skin thickness, Mason Trichromic staining) ([7]; local, once a week, 20 pg, four weeks, compared with LAP alone, as effective as cortistatin 10 ng 3 times per week): effective in reducing dermal fibrosis | effectiveness of a single injection relative to recombinant cortistatin ([7]; weekly 20 pg versus cortistatin 3 times per week at 500-fold higher concentration): at least 1,500 times | lung fibrosis and damage ([8]; 18 days, as effective as cortistatin 3 times per week at 500-fold higher dose): significantly reduced lung fibrosis and damage | survival ([8]; bleomycin alone causes 80% of mortality): dramatically increased survival
